Data from article PMC10397247.

Assays:
Assay in all cases: two-hybrid library CCNG1;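 also: natural log of median RNA to DNA barcode read ratio; higher means stronger binding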
4H2438-bH = biological target: T1, 4H2438-bH
T1 chain: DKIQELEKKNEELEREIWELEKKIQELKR

4H2473-bH = biological target: T2, 4H2473-bH
T2 chain: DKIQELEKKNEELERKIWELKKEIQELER

4H2503-bH = biological target: T3, 4H2503-bH
T3 chain: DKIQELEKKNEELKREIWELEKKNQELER

4H2588-bH = biological target: T4, 4H2588-bH
T4 chain: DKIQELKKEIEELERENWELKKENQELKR

4H2692-bH = biological target: T5, 4H2692-bH
T5 chain: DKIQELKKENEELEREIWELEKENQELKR

4H2717-bH = biological target: T6, 4H2717-bH
T6 chain: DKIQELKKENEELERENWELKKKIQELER

4H2839-bH = biological target: T7, 4H2839-bH
T7 chain: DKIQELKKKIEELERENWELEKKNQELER

4H2915-bH = biological target: T8, 4H2915-bH
T8 chain: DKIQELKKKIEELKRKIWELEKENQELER

4H3057-bH = biological target: T9, 4H3057-bH
T9 chain: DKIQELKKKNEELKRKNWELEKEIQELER

4H319-bH = biological target: T10, 4H319-bH
T10 chain: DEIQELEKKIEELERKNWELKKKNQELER

4H3277-bH = biological target: T11, 4H3277-bH
T11 chain: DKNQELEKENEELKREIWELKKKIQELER

4H348-bH = biological target: T12, 4H348-bH
T12 chain: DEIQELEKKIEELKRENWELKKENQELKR

4H40-bH = biological target: T13, 4H40-bH
T13 chain: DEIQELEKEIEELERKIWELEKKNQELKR

4H477-bH = biological target: T14, 4H477-bH
T14 chain: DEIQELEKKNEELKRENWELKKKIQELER

4H492-bH = biological target: T15, 4H492-bH
T15 chain: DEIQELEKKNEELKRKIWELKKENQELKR

4H741-bH = biological target: T16, 4H741-bH
T16 chain: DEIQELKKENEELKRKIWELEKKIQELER

4H3601-bN = biological target: T17, 4H3601-bN
T17 chain: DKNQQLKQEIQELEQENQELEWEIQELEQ

4H3907-bN = biological target: T18, 4H3907-bN
T18 chain: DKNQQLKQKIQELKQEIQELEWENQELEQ

4H4038-bN = biological target: T19, 4H4038-bN
T19 chain: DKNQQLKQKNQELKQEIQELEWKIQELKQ

4H344-bN = biological target: T20, 4H344-bN
T20 chain: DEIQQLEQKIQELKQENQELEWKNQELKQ

4H363-bN = biological target: T21, 4H363-bN
T21 chain: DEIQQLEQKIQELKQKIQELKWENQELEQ

4H3961-bN = biological target: T22, 4H3961-bN
T22 chain: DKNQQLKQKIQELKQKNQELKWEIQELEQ

4H470-bN = biological target: T23, 4H470-bN
T23 chain: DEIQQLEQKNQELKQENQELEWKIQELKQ

B1: 4H2438-bH (peptide)
chain: DKIQELEKKNEELEREIWELEKKIQELKR
interaction score (4H2438-bH): -0.05 | interaction score (4H2473-bH): 1.01 | interaction score (4H2503-bH): 0.644 | interaction score (4H2588-bH): -0.0625 | interaction score (4H2692-bH): 0.322 | interaction score (4H2717-bH): 0.187 | interaction score (4H2839-bH): 0.0743 | interaction score (4H2915-bH): 1.73 | interaction score (4H3057-bH): 1.41 | interaction score (4H319-bH): -1.85 | interaction score (4H3277-bH): -0.355 | interaction score (4H348-bH): -0.861 | interaction score (4H40-bH): -0.00537 | interaction score (4H477-bH): 0.358 | interaction score (4H492-bH): -0.644 | interaction score (4H741-bH): -0.318

B2: 4H3601-bN (peptide)
chain: DKNQQLKQEIQELEQENQELEWEIQELEQ
interaction score (4H3601-bN): -1.57 | interaction score (4H3907-bN): -1.37 | interaction score (4H4038-bN): -1.28

B3: 4H344-bN (peptide)
chain: DEIQQLEQKIQELKQENQELEWKNQELKQ
interaction score (4H344-bN): 0.297 | interaction score (4H363-bN): -2.06 | interaction score (4H3907-bN): -2.07 | interaction score (4H3961-bN): 0.044 | interaction score (4H470-bN): 0.132
